{"source": "paper PMC4764565", "target": "EphB2-KD-GFP (UniProt P54763)", "sequence (P54763 19-986)": "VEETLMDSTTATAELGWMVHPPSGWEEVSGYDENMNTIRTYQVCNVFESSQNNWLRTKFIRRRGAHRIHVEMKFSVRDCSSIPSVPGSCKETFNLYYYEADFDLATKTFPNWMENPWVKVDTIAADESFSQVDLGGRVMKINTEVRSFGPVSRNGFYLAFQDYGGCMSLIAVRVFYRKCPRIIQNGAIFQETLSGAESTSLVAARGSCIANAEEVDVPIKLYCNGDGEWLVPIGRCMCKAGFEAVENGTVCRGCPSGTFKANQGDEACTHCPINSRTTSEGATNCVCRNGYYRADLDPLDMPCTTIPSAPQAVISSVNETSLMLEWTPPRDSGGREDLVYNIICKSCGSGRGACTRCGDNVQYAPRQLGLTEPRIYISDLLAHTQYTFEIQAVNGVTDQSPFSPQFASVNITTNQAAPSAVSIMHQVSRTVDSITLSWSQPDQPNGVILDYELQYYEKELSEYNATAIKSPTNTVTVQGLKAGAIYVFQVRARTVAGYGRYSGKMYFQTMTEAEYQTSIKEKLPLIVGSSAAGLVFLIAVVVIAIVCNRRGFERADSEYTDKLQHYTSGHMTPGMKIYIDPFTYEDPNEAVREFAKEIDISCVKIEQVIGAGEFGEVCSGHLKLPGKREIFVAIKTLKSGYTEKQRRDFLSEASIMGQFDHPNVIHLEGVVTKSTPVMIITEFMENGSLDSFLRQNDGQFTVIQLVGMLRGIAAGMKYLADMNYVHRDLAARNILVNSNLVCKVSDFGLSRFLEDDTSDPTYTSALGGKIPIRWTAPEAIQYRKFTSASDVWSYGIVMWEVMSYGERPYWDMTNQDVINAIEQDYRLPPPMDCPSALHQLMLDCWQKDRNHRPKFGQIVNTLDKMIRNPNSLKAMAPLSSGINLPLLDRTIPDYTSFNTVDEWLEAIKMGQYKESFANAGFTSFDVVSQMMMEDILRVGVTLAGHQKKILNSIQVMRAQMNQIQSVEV", "test": "co-IP; anti-GFP antibody on ProteinA/G agarose, overnight, pre-cleared lysates of co-transfected HEK293 cells (10mM Tris-Cl pH 8, 137 mM NaCl, 2mM EDTA, 1% NP40); blot for Myc; in the ligand experiments cells were starved 2 hr in OPTIMEM and incubated 15 min at 37°C with pre-clustered Fc, eB2-Fc or eA3-Fc (1.5 μg/ml), Netrin-1 (250 ng/ml) or eB2-Fc+Netrin-1 before lysis"}
{"substance": "Unc5c-Myc (from UniProt O08747 41-931) (receptor)", "values": [{"measurement": "percent reduction of the interaction against wild-type EphB2-GFP", "result": 67, "unit": "%"}]}
